Experimental findings from patent US20240124553A1 (WASHINGTON UNIVERSITY, published 2024) are described below.

Assay in all cases: flow cytometry, transfected 293T cells
In general terms: In flow cytometry, cells or beads pass a laser one at a time.

For assay [1], the target named is T1, CHIKV E2-E1 envelope glycoproteins (strain S27), E2 mutant D132A (chikungunya virus strain S27, UniProt Q8JUX5 1-1248; Q8JUX5 810-1248).
T1 construct: whole, on cells; E2 domain A

Assay [2] addresses T2, CHIKV E2-E1 envelope glycoproteins (strain S27), E2 mutant R36A (chikungunya virus strain S27, UniProt Q8JUX5 1-1248; Q8JUX5 810-1248).
T2 construct: whole, on cells; E2 domain A

For assay [3], the target named is T3, CHIKV E2-E1 envelope glycoproteins (strain S27), E2 mutant K66A (chikungunya virus strain S27, UniProt Q8JUX5 1-1248; Q8JUX5 810-1248).
T3 construct: whole, on cells; E2 domain A

Assay [4] has as its target T4, CHIKV E2-E1 envelope glycoproteins (strain S27), E2 mutant A76S (chikungunya virus strain S27, UniProt Q8JUX5 1-1248; Q8JUX5 810-1248).
T4 construct: whole, on cells; E2 domain A

Assay [5] has as its target T5, CHIKV E2-E1 envelope glycoproteins (strain S27), E2 mutant R104A (chikungunya virus strain S27, UniProt Q8JUX5 1-1248; Q8JUX5 810-1248).
T5 construct: whole, on cells; E2 domain A

For assay [6], the target named is T6, CHIKV E2-E1 envelope glycoproteins (strain S27), E2 mutant F115A (chikungunya virus strain S27, UniProt Q8JUX5 1-1248; Q8JUX5 810-1248).
T6 construct: whole, on cells; E2 domain A

Assay [7] addresses T7, CHIKV E2-6K-E1 envelope proteins (strain S27) with E2 I217A (Chikungunya virus strain S27, UniProt Q8JUX5 1-1248; Q8JUX5 810-1248).
T7 construct: whole, on cells

B1: Mxra8-Fc (mouse Mxra8 extracellular domain fused to mouse IgG2b Fc) (Fc fusion)
chain: SGPSGTAAASSSLVSESVVSLAAGTQAVLRCQSPRMVWTQDRLHDRQRVVHWDLSGGPGSQRRRLVDMYSAGEQRVYEPRDRDRLLLSPSAFHDGNFSLLIRAVDRGDEGVYTCNLHHHYCHLDESLAVRLEVTEDPLLSRAYWDGEKEVLVVAHGAPALMTCINRAHVWTDRHLEEAQQVVHWDRQLPGVSHDRADRLLDLYASGERRAYGPPFLRDRVSVNTNAFARGDFSLRIDELERADEGIYSCHLHHHYCGLHERRVFHLQVTEPAFEPPARASPGNGSGHSSAPSPDPTLTRGHSIINVIVPEDHTHPSGPISTINPCPPCKECHKCPAPNLEGGPSVFIFPPNIKDVLMISLTPKVTCVVVDVSEDDPDVQISWFVNNVEVHTAQTQTHREDYNSTIRVVSTLPIQHQDWMSGKEFKCKVNNKDLPSPIERTISKIKGLVRAPQVYILPPPAEQLSRKDVSLTCLVVGFNPGDISVEWTSNGHTEENYKDTAPVLDSDGSYFIYSKLNMKTSKWEKTDSFSCNVRHEGLKNYYLKKTISRSPGK
Take B1: the “Binding Reactivity (% WT)” value in assay [1] turned out to be 105 % WT; in assay [2], 68.3 % WT; in assay [3], 93.1 % WT; in assay [4], 85 % WT; in assay [5] it was 49.9 % WT; in assay [6] it was 3.3 % WT.

B2: Mxra8-Fc (mouse Mxra8 extracellular domain fused to mouse IgG2b Fc) (Fc fusion)
chain: B1 chain
For B2, the “Binding Reactivity (% WT)” value in assay [7] came to 12.3 % WT.
